Measurements: patent US20250170209A1 (published 2025)

Experiments:
complement component C3 [1] = target: T1, complement component C3 (human, UniProt P01024 23-1663); experiment: cell-based or functional assay
complement component C3 [2] = target: T1, complement component C3; experiment: cell-based or functional assay; remark: listed apart in the source

B1: CA28-AEEAc-Lys-(PEG30k) (peptide)
peptide: ICVXQDWGAHRCTK
modifications: not fully specified; N-terminal acetyl; 1-methyl-tryptophan at position 4; disulfide Cys2-Cys12; AEEAc (8-amino-3,6-dioxaoctanoyl) between Thr13 and Lys; linear monofunctional 30 kD PEG (SUNBRIGHT ME-300GS) on the Lys side chain; C-terminal amide
activity relative to CA28 on a molar basis; classical complement inhibition assay (complement component C3 [1]): ~30 % of the activity of CA28 | IC50; classical complement inhibition assay (C3b deposition ELISA, human plasma) (complement component C3 [2]): 1260 nM

B2: CA28-AEEAc-Lys-(PEG40k) (peptide)
peptide: ICVXQDWGAHRCTK
modifications: not fully specified; N-terminal acetyl; 1-methyl-tryptophan at position 4; disulfide Cys2-Cys12; AEEAc (8-amino-3,6-dioxaoctanoyl) between Thr13 and Lys; linear monofunctional 40 kD methoxy-PEG (SUNBRIGHT ME-400GS) on the Lys side chain; C-terminal amide
activity relative to CA28 on a molar basis; classical complement inhibition assay (complement component C3 [1]): ~30 % of the activity of CA28 | IC50; classical complement inhibition assay (C3b deposition ELISA, human plasma) (complement component C3 [2]): 1290 nM

B3: (CA28-AEEAc)8-PEG40k (peptide)
peptide: ICVXQDWGAHRCTK
modifications: not fully specified; N-terminal acetyl; 1-methyl-tryptophan at position 4; disulfide Cys2-Cys12; AEEAc between Thr13 and Lys; Lys side chain coupled to one arm of an eight-arm 40 kD PEG (SUNBRIGHT HGEO-400GS); C-terminal amide
IC50 on a molar basis (calculated for 7.5 CA28 moieties per molecule); classical complement inhibition assay (complement component C3 [1]): ~260 nM | IC50 as a function of CA28 concentration (per peptide moiety); classical complement inhibition assay (complement component C3 [2]): 1930 nM
